Assay results from patent publication US20250101100A1 (Bristol-Myers Squibb, published 2025).
Substitutions are numbered along the chain they refer to. Names may count otherwise.

Tests used:
[1] = biological target: T1, human NKG2A on cells (human, UniProt P26715 1-233); experiment: flow cytometry on CHO cells expressing human NKG2A, anti-human IgG-PE
T1 construct: also called hNKG2A; CHO-hNKG2A

[2] = biological target: T1, human NKG2A on cells; experiment: flow cytometry, blocking of labelled HLA-E pentamer on NKL cells
[3] = biological target: T2, human NKG2C on CHO cells (human, UniProt P26717 1-231); experiment: flow cytometry, binding to CHO cells expressing human NKG2C, anti-human IgG-PE
T2 construct: also called CHO-human NKG2C; hNKG2C
Procedure: As depicted in FIG. 18A, 1×10⁶ human NKG2A-expressing or human NKG2C-expressing CHO cells were incubated with titrating amounts of anti-NKG2A antibody for 30 minutes at 4° C. Cells were washed and stained with fluorescently labeled goat anti-human IgG-PE secondary antibody for 30 minutes at 4° C. to detect the bound antibody on the cell surface. Cells were read fresh on the BD LSRFortessa.

[4] = biological target: T1, human NKG2A on cells; experiment: flow cytometry, blocking of HLA-E pentamer binding to CHO cells expressing human NKG2A
[5] = biological target: T1, human NKG2A on cells; experiment: flow cytometry on NKL cells (endogenous human NKG2A), anti-human IgG-PE
Procedure: Cells were washed and stained with fluorescently labeled goat anti-human IgG-PE secondary antibody for 30 minutes at 4° C. to detect the bound antibody on the cell surface. Cells were read fresh on the BD LSRFortessa.

[6] = biological target: T2, human NKG2C on CHO cells; experiment: flow cytometry, blocking of HLA-E pentamer binding to CHO cells expressing human NKG2C
[7] = biological target: T3, cynomolgus NKG2A-CD94-mFc (cynomolgus monkey, UniProt Q68VD2 94-233); experiment: SPR Biacore T200, 37 °C, Fab as analyte over NKG2A-CD94-mFc immobilized on CM4 chip
T3 construct: also called monkey NKG2A-CD94-mFc (truncated construct); cyNKG2A-CD94; not shown: mouse Fc

[8] = biological target: T4, cynomolgus monkey NKG2A on cells (cynomolgus monkey, UniProt Q68VD2 1-233); experiment: flow cytometry on CHO cells expressing cynomolgus NKG2A
T4 construct: whole, on cells; On transfected CHO cells or on NK cells of cynomolgus PBMC / blood; also called CHO-cyno NKG2A; CHO-cynomolgus NKG2A
Procedure: The ability of anti-NKG2A antibodies that bound to cynomolgus NKG2A-expressing CHO cells was assessed. As depicted in FIG. 22A, 1×10⁶ cynomolgus NKG2A-expressing CHO cells were incubated with titrating amounts of anti-NKG2A antibody (10 ug/ml) 10 for 30 minutes at 4° C. […] Cells were read fresh on the BD LSRFortessa.

[9] = biological target: T1, human NKG2A on cells; experiment: flow cytometry, blocking of labelled HLA-E pentamer on CHO cells expressing human NKG2A
Procedure: As depicted in FIG. 20A, 1×10⁶ human NKG2A-expressing CHO cells were incubated with titrating amounts of anti-NKG2A antibody (10 ug/ml) for 30 minutes at 4° C. […] Cells were read fresh on the BD LSRFortessa.

[10] = biological target: T1, human NKG2A on cells; experiment: flow cytometry on CHO cells expressing human NKG2A
[11] = biological target: T5, human NKG2A-CD94 heterodimer (extracellular domains) (human, UniProt Q13241 32-179); experiment: SPR Biacore T200, 37 °C, antibody captured by anti-hFc on CM4 chip, heterodimer as analyte
T5 construct: extracellular domain; also called hNKG2A-heterodimer; hNKG2A-hCD94
Source text: (§1) All data were double-referenced and fitted to a 1:1 binding model using the Biacore T200 Evaluation Software version 3.1.

[12] = biological target: T6, human NKG2C-CD94 heterodimer (extracellular domains) (human, UniProt Q13241 32-179); experiment: as above
T6 construct: extracellular domain; also called hNKG2C-heterodimer; hNKG2C-CD94
Source text: as §1

[13] = biological target: T5, human NKG2A-CD94 heterodimer …; experiment: SPR Biacore T200, 37 °C, antibody captured by anti-human Fc on C1 chip, hNKG2A-hCD94 as analyte
[14] = biological target: T2, human NKG2C on CHO cells; experiment: FACS on CHO cells engineered to express human NKG2C-CD94

T2 sequence (P26717 other isoform, or with tags, fused parts or gaps): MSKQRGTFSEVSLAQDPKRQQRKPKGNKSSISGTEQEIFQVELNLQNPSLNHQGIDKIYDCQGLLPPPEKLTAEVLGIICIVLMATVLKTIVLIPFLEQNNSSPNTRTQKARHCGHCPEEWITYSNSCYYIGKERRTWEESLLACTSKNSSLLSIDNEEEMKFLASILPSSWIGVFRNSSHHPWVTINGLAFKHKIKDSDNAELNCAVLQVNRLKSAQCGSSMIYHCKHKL
T1 sequence (P26715 whole entry): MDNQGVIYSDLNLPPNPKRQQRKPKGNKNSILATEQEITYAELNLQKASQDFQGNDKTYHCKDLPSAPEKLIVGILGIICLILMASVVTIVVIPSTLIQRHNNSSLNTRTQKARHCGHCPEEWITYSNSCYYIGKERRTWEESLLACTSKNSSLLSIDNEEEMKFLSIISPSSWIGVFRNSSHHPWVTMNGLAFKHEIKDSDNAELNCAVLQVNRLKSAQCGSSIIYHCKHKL
T5 sequence (chain, as listed by the source, chain 1 of 2): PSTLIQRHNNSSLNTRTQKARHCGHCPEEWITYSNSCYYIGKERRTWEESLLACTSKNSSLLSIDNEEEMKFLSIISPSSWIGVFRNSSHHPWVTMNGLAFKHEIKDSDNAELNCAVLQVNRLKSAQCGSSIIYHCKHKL
T5 sequence (Q13241 32-179, chain 2 of 2): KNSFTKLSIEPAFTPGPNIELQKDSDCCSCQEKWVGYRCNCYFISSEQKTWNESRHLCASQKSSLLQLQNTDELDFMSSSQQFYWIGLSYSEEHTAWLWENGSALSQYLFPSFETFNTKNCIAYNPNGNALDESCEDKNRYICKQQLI
T4 sequence (Q68VD2 entry or part of it): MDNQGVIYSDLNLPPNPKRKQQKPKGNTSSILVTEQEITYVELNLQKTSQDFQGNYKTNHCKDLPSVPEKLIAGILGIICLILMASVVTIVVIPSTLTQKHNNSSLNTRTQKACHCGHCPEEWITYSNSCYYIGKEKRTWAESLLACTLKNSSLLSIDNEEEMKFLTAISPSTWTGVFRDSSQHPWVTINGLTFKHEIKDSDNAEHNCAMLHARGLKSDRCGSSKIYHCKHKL
T6 sequence (chain, as listed by the source, chain 1 of 2): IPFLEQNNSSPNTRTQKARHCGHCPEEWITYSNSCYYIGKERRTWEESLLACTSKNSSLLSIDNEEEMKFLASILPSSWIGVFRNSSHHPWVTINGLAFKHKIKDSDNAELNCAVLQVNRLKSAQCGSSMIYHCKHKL
T6 sequence (Q13241 32-179, chain 2 of 2): as the sequence (Q13241 32-179, chain 2 of 2) above
T3 sequence (Q68VD2 entry or part of it): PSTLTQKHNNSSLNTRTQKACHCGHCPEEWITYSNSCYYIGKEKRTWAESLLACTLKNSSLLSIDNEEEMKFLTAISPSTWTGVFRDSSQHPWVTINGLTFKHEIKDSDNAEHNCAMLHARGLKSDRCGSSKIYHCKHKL

B1: 11H9.A1 antibody (antibody, human IgG1, kappa, V domains shown)
VH: EVQLVESGGGLVKPGGSLRLSCAASGFTFSSYSMNWVRQAPGKGLEWVSSISSSSSYIYYADSVKGRFTISRDNAKNSLYLQMNSLRAEDTAVYYCARLLWFGEIFDYWGQGTLVTVSS
VL: AIQLTQSPSSLSASVGDRVTITCRASQGISSALAWYQQKPGKAPKLLIYDASSLKSGVPSRFSGSGSGTDFTLTISSLQPEDFATYYCQQFNSYPITFGQGTRLEIKR
notes: Hybridoma antibody; also called 11H9.A4
Q: For B1, which EC50 [1] is on record?
A: The EC50 was 0.7 nM.

Q: And the IC50 [2]?
A: The IC50 was 0.1 nM.

Q: And the EC50 [3]?
A: The EC50 was 9 nM.

Q: What about the IC50 [4] of the same binder?
A: The IC50 was 1 nM.

Q: And the EC50 [5]?
A: The EC50 was 0.1 nM.

Q: What about the IC50 [6] of the same binder?
A: Its IC50 is 54 nM.

B2: NKG2A.9 Fab (Fab, V domains shown)
VH: EVQLVESGGGLVKPGGSLRLSCAASGFTFSSHSMNWVRQAPGKGLEWVSAISSSSSYIYYADSVKGRFTISRDNAKNSLYLQMNSLRAEDTAVYYCAREEWGLPFDYWGQGTLVTVSS
VL: AIQLTQSPSSLSASVGDRVTITCRASQGISSALAWYQQKPGKAPKLLIYDASSLKSGVPSRFSGSGSGTDFTLTISSLQPEDFATYYCQQFNSYPLTFGQGTRLEIK
notes: Fab of NKG2A.9
Q: Which results are given for B2?
A: KD ratio (cy/h) [7]: ~26; Kd [7]: 1600 nM

B3: 2G6.C2 antibody (antibody, human IgG1, kappa, V domains shown)
VH: EVQLVESGGGLVQRGGSLRLSCAASGFTFSSNSMNWIRQAPGKGLEWVAHISSGSSFIYYADSVKGRFTISRDNAKNSLSLQMNSLRDEDTAVYYCARDDWGIDAFNIWGQGTMVTVSS
VL: EIVLTQSPATLSLSPGERATLSCRASQSVSSSLAWYQQKPGQAPRLLIYDASNRATGIPARFSGSGSGTDFTLTISSLEPEDFAVYYCQQRSNWIFTFGPGTKVDIKR
notes: Hybridoma antibody
Q: How did the EC50 [8] turn out when B3 was run?
A: Its EC50 is 0.6 nM.

Q: And the IC50 [9]?
A: Its IC50 is 1.3 nM.

Q: What about the EC50 [10] of the same binder?
A: The EC50 was 1 nM.

Q: And the “Half-life of Antibody/Analyte Complex” value [11]?
A: The value was 19 s.

Q: And the Kd [11]?
A: The Kd was 91 nM.

Q: What about the koff [11] of the same binder?
A: Its koff is 0.036 s⁻¹.

Q: What about the kon [11] of the same binder?
A: The kon was 400000 M⁻¹ s⁻¹.

Q: And the “Half-life of Antibody/Analyte Complex” value [12]?
A: Its value is 23 s.

Q: And the Kd [12]?
A: The Kd was 1100 nM.

Q: And the koff [12]?
A: The koff was 0.03 s⁻¹.

Q: What about the kon [12] of the same binder?
A: Its kon is 28000 M⁻¹ s⁻¹.

B4: monalizumab (antibody, V domains shown)
VH: QVQLVQSGAEVKKPGASVKVSCKASGYTFTSYWMNWVRQAPGQGLEWMGRIDPYDSETHYAQKLQGRVTMTTDTSTSTAYMELRSLRSDDTAVYYCARGGYDFDVGTLYWFFDVWGQGTTVTVSS
VL: DIQMTQSPSSLSASVGDRVTITCRASENIYSYLAWYQQKPGKAPKLLIYNAKTLAEGVPSRFSGSGSGTDFTLTISSLQPEDFATYYCQHHYGTPRTFGGGTKVEIKR
Q: What does the source list for B4?
A: Half-life of Antibody/Analyte Complex [13]: 3 to 4 s; Kd [13]: 26 nM; koff [13]: 0.2 s⁻¹; kon [13]: 7e+06 M⁻¹ s⁻¹

B5: 1G5.B2 antibody (antibody, human IgG1, kappa, V domains shown)
VH: QVQLVESGGGVVQPGRSLRLSCAASGFTFSDYAMHWVRQTPGRGLEWLTFISYDGSNKYHADSVKGRFTISRDNSKNTLFLQMNSLRAEDTAVYYCARDSWDRGYFDLWGRGTLVTVSS
VL: EIVLTQSPATLSLSPGERATLSCRASQSVSSYLAWYQQKPGQAPRLLIYDASNRATGIPARFSGSGSGTDFTLTISSLEPEDFAVYYCQQRSNWWTFGQGTKVEIKR
notes: Hybridoma antibody; printed as IG5.B2 in two paragraphs; also called IG5.B2
Q: With B5 as the binder, how does the EC50 [1] read?
A: The EC50 was 0.6 nM.

Q: What about the IC50 [2] of the same binder?
A: Its IC50 is 0.4 nM.

Q: And the IC50 [9]?
A: The IC50 was 0.7 nM.

Q: What about the EC50 [5] of the same binder?
A: The EC50 was 0.3 nM.

B6: NKG2A.10 antibody (antibody, IgG1, V domains shown)
VH: B2 VH
VL: B1 VL with S30Q, I96L
notes: IgG1.3f; also called 13F3.A4 VH-I107T, VK-N30Q
Q: Which results are given for B6?
A: EC50 [1]: 0.1 nM; EC50 [8]: 1.3 nM; IC50 [9]: 0.05 nM

B7: NKG2A.14 antibody (antibody, human IgG1, kappa, V domains shown)
VH: B2 VH with T112I
VL: B1 VL with S30Q, I96L
notes: IgG1.3f; also called 13F3.A4 VK-N30Q
Q: For B7, which EC50 [1] is on record?
A: The EC50 was 0.1 nM.

Q: And the IC50 [9]?
A: Its IC50 is 0.2 nM.

B8: NKG2A.12 antibody (antibody, human IgG1, kappa, V domains shown)
VH: B2 VH
VL: B1 VL with S30N, I96L
notes: IgG1.3f; also called 13F3.A4 VH-I107T
Q: B8 was tested. Which EC50 [1] did it give?
A: The EC50 was 0.2 nM.

Q: And the EC50 [8]?
A: The EC50 was 1.2 nM.

Q: What about the IC50 [9] of the same binder?
A: The IC50 was 0.1 nM.

B9: NKG2A.15 antibody (antibody, human IgG1, kappa)
heavy: EVQLVESGGGLVKPGGSLRLSCAASGFTFSSHSMNWVRQAPGKGLEWVSAISSSSSYIYYADSVKGRFTISRDNAKNSLYLQMNSLRAEDTAVYYCAREEWGLPFDYWGQGILVTVSSASTKGPSVFPLAPSSKSTSGGTAALGCLVKDYFPEPVTVSWNSGALTSGVHTFPAVLQSSGLYSLSSVVTVPSSSLGTQTYICNVNHKPSNTKVDKRVEPKSCDKTHTCPPCPAPEAEGAPSVFLFPPKPKDTLMISRTPEVTCVVVDVSHEDPEVKFNWYVDGVEVHNAKTKPREEQYNSTYRVVSVLTVLHQDWLNGKEYKCKVSNKALPAPIEKTISKAKGQPREPQVYTLPPSREEMTKNQVSLTCLVKGFYPSDIAVEWESNGQPENNYKTTPPVLDSDGSFFLYSKLTVDKSRWQQGNVFSCSVMHEALHNHYTQKSLSLSPGK
light: AIQLTQSPSSLSASVGDRVTITCRASQGIPSALAWYQQKPGKAPKLLIYDASSLKSGVPSRFSGSGSGTDFTLTISSLQPEDFATYYCQQFNSYPLTFGQGTRLEIKRTVAAPSVFIFPPSDEQLKSGTASVVCLLNNFYPREAKVQWKVDNALQSGNSQESVTEQDSKDSTYSLSSTLTLSKADYEKHKVYACEVTHQGLSSPVTKSFNRGEC
notes: IgG1.3f; also called 13F3.A4 VK-N30P
Q: What does the source list for B9?
A: EC50 [1]: 0.1 nM; IC50 [9]: 0.1 nM

B10: NKG2A.5 antibody (antibody, V domains shown)
VH: B1 VH
VL: B2 VL with L96I
notes: also called recombinant 11H9.A4
Q: Which EC50 [1] does the source give for B10 here?
A: Its EC50 is 0.3 nM.

Q: What about the IC50 [9] of the same binder?
A: The IC50 was 0.3 nM.

B11: NKG2A.11 antibody (antibody, human IgG1, kappa)
heavy: EVQLVESGGGLVKPGGSLRLSCAASGFTFSSHSMNWVRQAPGKGLEWVSAISSSSSYIYYADSVKGRFTISRDNAKNSLYLQMNSLRAEDTAVYYCAREEWGLPFDYWGQGTLVTVSSASTKGPSVFPLAPSSKSTSGGTAALGCLVKDYFPEPVTVSWNSGALTSGVHTFPAVLQSSGLYSLSSVVTVPSSSLGTQTYICNVNHKPSNTKVDKRVEPKSCDKTHTCPPCPAPEAEGAPSVFLFPPKPKDTLMISRTPEVTCVVVDVSHEDPEVKFNWYVDGVEVHNAKTKPREEQYNSTYRVVSVLTVLHQDWLNGKEYKCKVSNKALPAPIEKTISKAKGQPREPQVYTLPPSREEMTKNQVSLTCLVKGFYPSDIAVEWESNGQPENNYKTTPPVLDSDGSFFLYSKLTVDKSRWQQGNVFSCSVMHEALHNHYTQKSLSLSPG
light: B9 light
notes: Human IgG1.3f, kappa; also called 13F3.A4 VH I107T, VK N30P; 13F3 VH I107T VK N30P
Q: Which EC50 [8] does the source give for B11 here?
A: Its EC50 is 1.4 nM.

B12: P1-069366 antibody (antibody, V domains shown)
VH: QVQLVESGGGVVQPGRSLRLSCAASGFTFSSYAMHWVRQAPGKGLEWVAVISYDGSYKEYADSVKGRFTISRDSSKNTLYLQMNSLRAEDTAVYYCARAQISEYFDYWGQGTLVTVSS
VL: DIQMTQSPSSLSASVGDRVTITCRASQGISSWLAWYQQKPEKAPKSLIYAASSLQSGVPSRFSGSGSGTDFTLTISSLQPEDFATYYCQQYNSYPLTFGQGTKVEIKR
notes: From the immune antibody library (yeast display); also called P10069366
Q: Does B12 bind [14]?
A: Result: no binding
